Assay: FE-SEM self-assembly
Type: physicochemical
Settings: HEPES pH 7.4, porphyrin 1.15 × 10^–3 M, peptide 2.3 × 10^–3 M, time of incubation 7 days

**Q.** Which self-assembled nanostructure morphology does the source give for “RGDSGAITIGH [RGDSGAITIGH + Py3P-Lys-NTA + Ni^2+]” here?
**A.** porous fibrillar network

From publication PMC8771699 (ACS Omega, 2022)
